Measured values published in the DeepSol protein solubility set.

assay: soluble on expression in E. coli; label from the status in PepcDB or PDB records

Sequence	soluble on expression in E. coli
RNLSGQSRTVGVEYVSANPTGPLHVGHGRAAAIGDCLARLLEANGWNVKREFYYNDAGVQIENLVRSVQARARGLKPGDALWPTDAYNGEYIADIAKAYLAGDSINMVDTIITSTKNVDDTAAIHHFAVNYLRNEQNHDLAAFNVDFDIYFLESSLYKDGKVEETVQKLINSGHTYEEGGALWLKSTHFGDDKDRVMRKSDGSYTYFVPDIAYHLSKWQRGYERAITELGADHHGSLARVHAGLQALEIGIPPGWPEYVLHQMVTVMRGGEEVKLSKRSGGYVTLRDLIEETSTDATRWFLIARKPDSQLTFDIDLARQKSNDNPVFYVQYAYARVCSLMHQAHE	not soluble
MDNDKKDKIILSGELTNHRFNFTKDGENGYSAYEVDRFLDQLVHTLTHYEAQRNREEEMKTAYEKLFQDRDEILKRCSKLEAELNNFYENGYSNRVLISRVQALENKIESLPSGQNDRLERIEKLLKRVIKHWTDGEDLSYGDFDDDFF	soluble
MSKFFINPEVLEKYSQKLAEHKSSVNHVRDLVAQADVSDESWGIVGLFVKQSYTEMLGDFKDLLKDMSDGLDSASDKMMSATRAYREIEEENRRILVEITRRINAAKIKNITS	not soluble
MSLTSQKTQLEPLGIVRIEGLHYYVHDLERSRRFYAQKLDFAEVARSTPALEREGRQRSAVFEAGGVRVVCSEPVGQGGRAWRWLRKHPDGVGTVVLEVEDAERAFRLLEERGGTPITDVQEHRDDGGTLRTFSITTPLGDTTFRFVERRGFRAVYPGIEPLAAPEGGRNAFGFGHVDHLTNNFQTMKPALLWMEHVMGMEEFWEVEFHTKDAAGARRAAIEAQKGSGLRSVVMRDPRSGVKFANNEPRRPAFKSSQINLFNEDLRGDGVQHAALTVQDILSSVRGMRARGVEFMPTPAAYYEALPERIRSTGIGRIDEDPRVLQELEILVDGAGDHSYLLQIFLRESAGLYHDPDAGPFFFEIIQRKGDQGFGAGNFRALFESIEREQVREGREGHHHHHH	soluble
MTDDKDVLRDVWFGRIPTCFTLYQDEITEREAEPYYLLLPRVSYLTLVTDKVKKHFQKVMRQEDVSEIWFEYEGTPLKWHYPIGLLFDLLASSSALPWNITVHFKSFPEKDLLHCPCKDAVEAHFMSCVKEADALKHKSQVINEMQRKDHKQLWMGLQNDLTSFGPSTGNSWNTLQKKMDFVISLLEYIRPQLNGLSFRSCSVLWPQMDSCIPLEIS	not soluble
MGHHHHHHSHMDAIHKQKSLQFKKTMDAKKNYEQKCRDKDEAEQAVSRSANLVNPKQQEKLFVKLATSKTAVEDSDKAYMLHIGTLDKVREEWQSEHIKACEAFEAQECERINFFRNALWLHVNQLSQQCVTSDEMYEQVRKSLEMCSIQRDIEYFVNQRKTGQIPPAPIMHENFYSSQKNAVPAGKATGPNLARRGPLPIPKSSPDDPNYSLVDDYSLLYQ	not soluble
MGSDKIHHHHHHMKEKIVLAPQKGPQEMFLATSADICIYGGAAGGGKTFGLLLEPLRYMNNPDYNATIFRRDYTQVTSPGGLWDSSRKIYRYVKGSRPLKTPKLHWTFKRGASVNFAHLGRDEDCDDWQGSQLTMIGFDELTHFSEYQFFYMLSRNRTDSGVKPYVRATCNPDADSWVAEFISWWINQETGYPIPERSGVIRWMVRLNEVVTWFDSREEAVQGAIENGVKPEQAETMPKSVTFIASTLHDNKILMKNDPGYLANLQAMTLVQRERLLHGNWKIKAAAGLMFKRVKVNMLEEIPPDVIKWARGWDLAATSEDEKGDPAYTAGVLIGKRRNGRYIVADVINRRLSSSDVREIIKQTCIADRAKYGRVATRLPQDPGQAGKDQAQSFMKLLAGFTVKCIQESGDKVTRAEPFSAQWLGLEGMDKGNVDVLIAPWNEEYFNECENFPQSKFKDMVDASSSAFTELESGATYSAPPKDSQLGKSSYWNK	not soluble
MSLTESFSTPKFHISPTGMIMEGAQLHIKCTIQVTHLAQEFPEIIIQKDKAIVAHNRHGNKAVYSVMAMVEHSGNYTCKVESSRISKVSSIVVNITELFSKPELESSFTHLDQGERLNLSCSIPGAPPANFTIQKEDTIVSQTQDFTKIASKSDSGTYICTAGIDKVVKKSNTVQIVVCEMLSQPRISYDAQFEVIKGQTIEVRCESISGTLPISYQLLKTSKVLENSTKNSNDPAVFKDNPTEDVEYQCVADNCHSHAKMLSEVLRVKVIAPVDEVQISILSSKVVESGEDIVLQCAVNEGSGPITYKFYREKEGKPFYQMTSNATQAFWTKQKASKEQEGEYYCTAFNRANHASSVPRSKILTVRVIEGHHHHHH	not soluble
GLESFSLTSHEKKFGVNIEFSDVNFSYPKQTNHRTLKSINFFIPSGTTCALVGHTGSGKSTIAKLLYRFYDAEGDIKIGGKNVNKYNRNSIRSIIGIVPQDTILFNETIKYNILYGKLDATDEEVIKATKSAQLYDFIEALPKKWDTIVGNKGMKLSGGERQRIAIARCLLKDPKIVIFDEATSSLDSKTEYLFQKAVEDLRKNRTLIIIAHRLSTISSAESIILLNKGKIVEKGTHKDLLKLNGEYAEMWNMQSGGNDI	soluble
MGSDKIHHHHHHMKFSINRQKTIEIIGEYSNILKDNPVKPSLAGLFIQAKNNQVVFKGANTEIELIRYANCEIESEGQVLIKPALLLEYIKLLEGENINFEKKDGYLIVNNAEFSILDDNTYPELTEIIPIVIASENTVKFTMSLEKVKFLTNSSASTDTLFNSIKMIFKDNVLELVSTDSFRLIYMKKELNNMINKDVLVPGDSIAVLYKIFKDLDEEFSLAASDDKLIVTWKDAYFTCKLLSLSFPDFRPLINNTNHDKRFEFNRDELNLALKKVISVTKNSSDSKNVATFNFKGNQLLISGVSANAKINQKVNMIKTGEDLKLGMNCKYIKDFIDNVDKNIIIDATNSSSMLRFMEEGNENYIYLIMPVNIRV	not soluble
MADKSAEKERLFNEWFTASYDRLRGTLRRYGMLDEDNFHDTYLFVRRQVLVPGKDITDYDAYFIGCYKKAALVKIKRENRYAHPEDDFFLRCGEEAKFLSEDDLNGCERLVRDILRFVRQKFSYEEYRMFMLRFYEAQFSFKALAECMGISASAISQKVCRIVDAVRTHSGFAWRSQMLAVESFMY	not soluble
MNAGKEFNYYTYQSDSSQGSLQKAPDENTDYFTHKMNSYLPFDMSTLYANQPTEKIQILQEIYDTERTYVKALTIVDEIFIQQLNLWCPKSKKCFRSMFGEISAICKTHQILLESLQCKPIAEVFTKFVPFLKLYTSYASHYPNSLKIFAKLMSRNDFRKALTKIEEDPRVDGKKLQTYLIMPIQRIPRYIMLIQNLMNYSTEKDDMTNLYKALSGMQGLSDQIQSCMTAYENGERLLQIQLNFGLDGHILEPGRVLLKEGMLYKRELNGSANYQETVVFLFNDILLYGIKRISVMPLCKYEPSAILSLRHCIVQLDDIGGSIFIRCGDVGVDFTAYSLGGVTEWYNEICDAIDNAKKLRDTLRKESFKQKSLIFDKGFWQRNRDKLRNMITADMTGNISRVLTRKKPAPKLEESDFLRGQWTTSTIASNQRKRKVATLEDEEEDVFNMLSSPNLSQRKRKATLQENTPSGVGWTASPRSSSFRKRRASTLRNKNADVTDGNNYLSHLVLNDVTMTQPYTGLNAFVGTPKSRTPTDDDYDSDRDYVWTDDEEFVSDDKKIPIRRVASYDEEDRRPRDFSEVRRSVASEPPRRHLAVDDIRKLSYQQRSLEPFNMVTEDDDEDDIIDIKVKGERPRPWWETESAPPAIKNQKSSIIDSIRNSCAIM	not soluble
MSLGFIDAQREHFGVESICKALQVAPSGYWRRAARRSNPALLPARAKGDAELVPQIERVWTSNLQVYGYRKVWRQMLREGTAVARCTVERLMRLKGLQGARRGKKILTTVPDAKAPCPLDRVNRQFKADKPNQLWVSDFTYVSTWQGMVYVAFVVDVYARFIVGWRVSRSMRTDFVLDALEQALYARKPERDGALIHHSDRGLQYVSIRYSERLAEAGIEPSVGSKGDSYDNALAETINGLYKTELIHRRAPWKSKEAVELATLEWVSWFNHHRLMESLGYIPPAEAEANYHWQLAGQAMSVEGHHHHHH	not soluble
MGSDKIHHHHHHNQFSVKCWLRYIEFKQGAPKPRLNQLYERALKLLPCSYKLWYRYLKARRAQVKHRCVTDPAYEDVNNCHERAFVFMHKMPRLWLDYCQFLMDQGRVTHTRRTFDRALRALPITQHSRIWPLYLRFLRSHPLPETAVRGYRRFLKLSPESAEEYIEYLKSSDRLDEAAQRLATVVNDERFVSKAGKSNYQLWHELCDLISQNPDKVQSLNVDAIIRGGLTRFTDQLGKLWCSLADYYIRSGHFEKARDVYEEAIRTVMTVRDFTQVFDSYAQFEESMIAAKMETASELGREEEDDVDLELRLARFEQLISRRPLLLNSVLLRQNPHHVHEWHKRVALHQGRPREIINTYTEAVQTVDPFKATGKPHTLWVAFAKFYEDNGQLDDARVILEKATKVNFKQVDDLASVWCQCGELELRHENYDEALRLLRKATALPARRAEYFDGSEPVQNRVYKSLKVWSMLADLEESLGTFQSTKAVYDRILDLRIATPQIVINYAMFLEEHKYFEESFKAYERGISLFKWPNVSDIWSTYLTKFIARYGGRKLERARDLFEQALDGCPPKYAKTLYLLYAQLEEEWGLARHAMAVYERATRAVEPAQQYDMFNIYIKRAAEIYGVTHTRGIYQKAIEVLSDEHAREMCLRFADMECKLGEIDRARAIYSFCSQICDPRTTGAFWQTWKDFEVRHGNEDTIKEMLRIRRSVQATYNTQVNFMASQMLKVSGSATGTVSDLAPGQSGMDDMKLLEQRAEQLAAEAERDQPLRAQSKILFVRSDASREELAELAQQVNPEEIQLGEDEDEDEMDLEPNEVRLEQQSVPAAVFGSLKED	not soluble
MTSTSRPPARGSENNGSGGSDGSGSGEDKVKGPTDKELEDAVNKLVEVAKKKAQEEADQARRSVEGKKSFEGDVLEYPYTREEVTKMIEDGAKEIKERFAAVYTPKPDDFDTMISRMQQVEAVLGAYEPSKNTTKETPVIGGGGDLELLRTSVSDMSDWQGKLKNAFVDNYLTPFPRITVTQGGLARFLRHQAEWMQAIYKRRRYDAKKTADQGVEAIEAIDDSKGSEAAIALAAIIGLATLLGPMGSSLAFGLGTSAVVAGTGIGAEFIEEDKEVPLGADTVQGVIDNVYKALEESDKTMVEEEGKVLDALKQIEGVVYPLVMGPDIDKGTELTPMRPAIVDTMDVEELKDGITVYDRHPGGS	not soluble
MGRHGKRGLNMTKQNSNTDRRSLQDCGVFSSAEYHSVGLSGGKDSSALLLLMLEKGMPIDSVIFADTGMDFPEMAAHIAKLDALLYRERGIHITTLRHPHGFEWLMFDEPKRKPSCLKNRARLGVPPYGNGWPGIKVRWCTGQLKTHLITKEVNRLKKEKNALHYIGIAADEAKRCKDAPNHRYPLVEWGVTEAQALQICYDRGFDFGGLYKIYHRASCWCCPLQRIGELRKLRQHHPELWARLWDMDNRARAQFGAGPLGQFKERWSIEQLDARFSREEKEERA	not soluble
MLSSTAIAKWQKINDVDYTWGPFKIYNISLFTETGEYKPQERPIMLTLRYNKPVDGRDFAISVAKSWANLGIALSEQNVVIERLRKILPDLKSGDALSYIALSDHGYFVLNDQVIEQEFNHEFNDAMLAIWLDPKVELSHKLITKKIEGAAQAVHYSAEYREKVTSSSEDLVSQEQRQQNLPNGTPSEATSLTEQEEREDDEKAPAISDAENDLRHSIDESAPQIVEPEQEIIPNVDPMPDYQLPVS	not soluble
SKEFFAPQRAGMKLRTFSDIDKYYTEQKKQEYHKEKVRVVAMAQVARERVRVAVNEHLNQKKYATQKLIEENKETIQNSLRQVWQNRFNYLEKARERKALFLKEKSQKASERLLVQNLNNERTLLTRGLLKIDRLEKNEAVLKEKSLIVKQKLKAEKYRKNLLKEMKKVRSQEIYKRHCEEKFVMDMIAFEKACERLQDAKTKVAIVKTNLDFKVPNGLIK	soluble
MSLDIHEGNLMPAKRKLTMRHIRQMLRLAGSGTSSREIAVMLGIARSTVQDNLKRAAMAGLSWALASGLTDDVLEAKLFVHPGVKRGQRLRQEPDWGPLSIELKKPGVTLLILWEEYRSAHPDGYGYSRFCELFRGFEKRLSPTMRQEHIAGDKVFVDYSGKKVPIVDRKTGEIREAELFLGVLGASSYCTRGRSVHLGELLRRAWIFQHLGNREGHHHHHH	soluble
